Assay results: article PMC9888711, “Pneumococcal capsule expression is controlled through a conserved, distal cis-regulatory element during infection” (PLOS Pathogens, 2023)
“And” between values parts separate entries of the source, which are not always exact repeats. Equal entries are not always repeated.

Experiments:
[1] = target: SpxR (SPD_0969), full-length recombinant (Streptococcus pneumoniae D39); test: SEC-MALS; Superdex 200 Increase 10/300 GL, 50 mM Tris-Cl pH 7.0, 500 mM NaCl, 1 mM TCEP, 70 uM, 25 C; no DNA
[2] = target: SpxR (SPD_0969), full-length recombinant (Streptococcus pneumoniae D39); test: negative stain electron microscopy; SpxR with 37-CE DNA in low salt (final 50 mM NaCl, HEPES pH 7.5, 5 mM MgCl2, 1 mM CaCl2); 3D reconstruction, C3 symmetry, 21.5 A
[3] = target: SpxR (SPD_0969), full-length recombinant (Streptococcus pneumoniae D39); test: negative stain electron microscopy; SpxR with 37-CE DNA in high salt (50 mM Tris pH 7.0, 500 mM NaCl, 1 mM TCEP); 3D reconstruction, C2 symmetry, 20.9 A
[4] = target: SpxR (SPD_0969), full-length recombinant (Streptococcus pneumoniae D39); test: SEC; Superose 6 Increase 10/300 GL, 50 mM Tris-Cl pH 7.0, 500 mM NaCl, 1 mM TCEP; 300 uL at 70 uM; calibrated with molecular weight standards
SpxR [5] = target: T1, SpxR (Streptococcus pneumoniae D39, UniProt A0A0H2ZR90 1-425); test: fluorescence polarization; 50 mM NaCl; EMSA: 20 mM HEPES pH 7.2, 50 mM NaCl, 5 mM MgCl2, 1 mM CaCl2, 0.1 mM EDTA, 12% glycerol, 10 mM DTT, 0.5 uM DNA, 400 ng poly(dI-dC); FP: same salts, 2% glycerol, 10 nM DNA (high salt 500 mM NaCl; Fig 5 legend says Tris pH 7.0); temperature not stated; conditions: protein: recombinant; tags: His6-SUMO removed by Ulp1; chain copies: 3; label: 6-FAM forward; blunt
CpsR [6] = target: T2, CpsR (Streptococcus pneumoniae D39, UniProt A0A0H2ZMA3 1-247); test: EMSA; shift begins at 625 nM protein; competed by unlabeled 37-CE; EMSA: 20 mM HEPES pH 7.2, 50 mM NaCl, 5 mM MgCl2, 1 mM CaCl2, 0.1 mM EDTA, 12% glycerol, 10 mM DTT, 0.5 uM DNA, 400 ng poly(dI-dC); FP: same salts, 2% glycerol, 10 nM DNA (high salt 500 mM NaCl; Fig 5 legend says Tris pH 7.0); temperature not stated; conditions: protein: recombinant; tags: His6-SUMO removed by Ulp1; chain copies: 2; label: 6-FAM on forward strand 5' (EMSA, FP); blunt
SpxR [7] = target: T1, SpxR; test: EMSA; shift begins at 312 nM protein; competed by unlabeled 37-CE; EMSA: 20 mM HEPES pH 7.2, 50 mM NaCl, 5 mM MgCl2, 1 mM CaCl2, 0.1 mM EDTA, 12% glycerol, 10 mM DTT, 0.5 uM DNA, 400 ng poly(dI-dC); FP: same salts, 2% glycerol, 10 nM DNA (high salt 500 mM NaCl; Fig 5 legend says Tris pH 7.0); temperature not stated; conditions: protein: recombinant; tags: His6-SUMO removed by Ulp1; chain copies: 3; label: 6-FAM on forward strand 5' (EMSA, FP); blunt
CpsR [8] = target: T2, CpsR; test: EMSA; EMSA: 20 mM HEPES pH 7.2, 50 mM NaCl, 5 mM MgCl2, 1 mM CaCl2, 0.1 mM EDTA, 12% glycerol, 10 mM DTT, 0.5 uM DNA, 400 ng poly(dI-dC); FP: same salts, 2% glycerol, 10 nM DNA (high salt 500 mM NaCl; Fig 5 legend says Tris pH 7.0); temperature not stated; conditions: protein: recombinant; tags: His6-SUMO removed by Ulp1; chain copies: 2; label: 6-FAM forward; blunt
SpxRDBD [9] = target: T3, SpxRDBD (Streptococcus pneumoniae D39, UniProt A0A0H2ZR90 1-63); test: EMSA; strongest of the extended truncations; EMSA: 20 mM HEPES pH 7.2, 50 mM NaCl, 5 mM MgCl2, 1 mM CaCl2, 0.1 mM EDTA, 12% glycerol, 10 mM DTT, 0.5 uM DNA, 400 ng poly(dI-dC); FP: same salts, 2% glycerol, 10 nM DNA (high salt 500 mM NaCl; Fig 5 legend says Tris pH 7.0); temperature not stated; conditions: protein: recombinant; tags: His6-SUMO removed by Ulp1; label: 6-FAM forward; blunt
[10] = target: the molecule itself; test: SEC; Superose 6 Increase 10/300 GL, 50 mM Tris-Cl pH 7.0, 500 mM NaCl, 1 mM TCEP; 300 uL at 70 uM; calibrated with molecular weight standards
SpxRDBD [11] = target: T3, SpxRDBD; test: EMSA; EMSA: 20 mM HEPES pH 7.2, 50 mM NaCl, 5 mM MgCl2, 1 mM CaCl2, 0.1 mM EDTA, 12% glycerol, 10 mM DTT, 0.5 uM DNA, 400 ng poly(dI-dC); FP: same salts, 2% glycerol, 10 nM DNA (high salt 500 mM NaCl; Fig 5 legend says Tris pH 7.0); temperature not stated; conditions: protein: recombinant; tags: His6-SUMO removed by Ulp1; label: 6-FAM forward; blunt
SpxRDBD [12] = target: T3, SpxRDBD; test: EMSA; second to 5'+10; EMSA: 20 mM HEPES pH 7.2, 50 mM NaCl, 5 mM MgCl2, 1 mM CaCl2, 0.1 mM EDTA, 12% glycerol, 10 mM DTT, 0.5 uM DNA, 400 ng poly(dI-dC); FP: same salts, 2% glycerol, 10 nM DNA (high salt 500 mM NaCl; Fig 5 legend says Tris pH 7.0); temperature not stated; conditions: protein: recombinant; tags: His6-SUMO removed by Ulp1; label: 6-FAM forward; blunt

SpxR (SPD_0969), full-length recombinant (natural protein)
stoichiometry N [1]: 4 and 8 | stoichiometry N [2]: 3 | stoichiometry N [3]: 4 | stoichiometry N [4]: 4

B1: 21-CE (dsDNA)
DNA 1: GTGTACTATATTATATTGAAA
DNA 2: TTTCAATATAATATAGTACAC
Kd (SpxR [5]): 71 nM

B2: 37-CE (dsDNA)
DNA 1: TGTGTACTATATTATATTGAAACTAGAATAGTACACA
DNA 2: TGTGTACTATTCTAGTTTCAATATAATATAGTACACA
binding result (CpsR [6]): binds | binding result (SpxR [7]): binds

B3: 37-CE 5'+10 (dsDNA)
DNA 1: TGTGTACTATATTATATTGA
DNA 2: TCAATATAATATAGTACACA
binding result (CpsR [8]): binds | binding result (SpxRDBD [9]): binds

B4: CpsR (SPD_0064), recombinant (natural protein)
chain: MEKENRGKNMAIPKYQYIKDELKNKIISGQFSSGDKFYTEAELISMYDVSSITVVRALNDLAKDGYIVRQQGKGTFVSRARKHKLVEFSDIELFNAKDDKVTVLSIERGNKLVYLEKLGLRGDQFYYKIERIRESNGVVYIYHTSYIPEQYINANYPNLEYYSSIYNRFKLDYHIHMNDEHFEEINEIVFPTPEHAASVLGVDEQFPTVLQTKITKLESTGQVLEYSETYKRSDYYKIKFISCDRDH
notes: CpsR (also called AgaR), transcription factor of Streptococcus pneumoniae D39, locus SPD_0064; 65.72 kDa as a dimer; cpsR amplified from D39 genomic DNA into pE-SUMO; also called AgaR; source: E. coli T7 Express lysY/Iq, purified (Ni-NTA, Ulp1 cleavage, SEC)
stoichiometry N [10]: 2

B5: 21-CE SpxR-only (dsDNA)
DNA 1: GTGTACTAGAGTAGTTTGAAA
DNA 2: TTTCAAACTACTCTAGTACAC
binding result (CpsR [8]): no binding | Kd (SpxR [5]): 56 nM

B6: 37-CE spacer (17 bp) (dsDNA)
DNA 1: ATTATATTGAAACTAGA
DNA 2: TCTAGTTTCAATATAAT
binding result (SpxRDBD [11]): no binding | binding result (CpsR [8]): no binding

B7: 21-CE Neither (dsDNA)
DNA 1: GTGTGAGAGAGTAGTTTGAAA
DNA 2: TTTCAAACTACTCTCTCACAC
binding result (SpxRDBD [11]): no binding | binding result (CpsR [8]): no binding

B8: 37-CE 3'+10 (dsDNA)
DNA 1: TGAAACTAGAATAGTACACA
DNA 2: TGTGTACTATTCTAGTTTCA
binding result (SpxRDBD [12]): binds | binding result (CpsR [8]): no binding

B9: 21-CE CpsR-only (dsDNA)
DNA 1: GTGTGAGATATTATATTGAAA
DNA 2: TTTCAATATAATATCTCACAC
binding result (SpxRDBD [11]): no binding | Kd (SpxR [5]): 104 nM

B10: 37-CE 5' (10 bp) (dsDNA)
DNA 1: TGTGTACTAT
DNA 2: ATAGTACACA
binding result (SpxRDBD [11]): no binding | binding result (CpsR [8]): no binding
